Measured values taken from publication PMC5937523 (Biochemistry, 2017).

T1: KDAC6 (Homo sapiens, UniProt Q9UBN7)
T1 sequence (Q9UBN7 1-1215): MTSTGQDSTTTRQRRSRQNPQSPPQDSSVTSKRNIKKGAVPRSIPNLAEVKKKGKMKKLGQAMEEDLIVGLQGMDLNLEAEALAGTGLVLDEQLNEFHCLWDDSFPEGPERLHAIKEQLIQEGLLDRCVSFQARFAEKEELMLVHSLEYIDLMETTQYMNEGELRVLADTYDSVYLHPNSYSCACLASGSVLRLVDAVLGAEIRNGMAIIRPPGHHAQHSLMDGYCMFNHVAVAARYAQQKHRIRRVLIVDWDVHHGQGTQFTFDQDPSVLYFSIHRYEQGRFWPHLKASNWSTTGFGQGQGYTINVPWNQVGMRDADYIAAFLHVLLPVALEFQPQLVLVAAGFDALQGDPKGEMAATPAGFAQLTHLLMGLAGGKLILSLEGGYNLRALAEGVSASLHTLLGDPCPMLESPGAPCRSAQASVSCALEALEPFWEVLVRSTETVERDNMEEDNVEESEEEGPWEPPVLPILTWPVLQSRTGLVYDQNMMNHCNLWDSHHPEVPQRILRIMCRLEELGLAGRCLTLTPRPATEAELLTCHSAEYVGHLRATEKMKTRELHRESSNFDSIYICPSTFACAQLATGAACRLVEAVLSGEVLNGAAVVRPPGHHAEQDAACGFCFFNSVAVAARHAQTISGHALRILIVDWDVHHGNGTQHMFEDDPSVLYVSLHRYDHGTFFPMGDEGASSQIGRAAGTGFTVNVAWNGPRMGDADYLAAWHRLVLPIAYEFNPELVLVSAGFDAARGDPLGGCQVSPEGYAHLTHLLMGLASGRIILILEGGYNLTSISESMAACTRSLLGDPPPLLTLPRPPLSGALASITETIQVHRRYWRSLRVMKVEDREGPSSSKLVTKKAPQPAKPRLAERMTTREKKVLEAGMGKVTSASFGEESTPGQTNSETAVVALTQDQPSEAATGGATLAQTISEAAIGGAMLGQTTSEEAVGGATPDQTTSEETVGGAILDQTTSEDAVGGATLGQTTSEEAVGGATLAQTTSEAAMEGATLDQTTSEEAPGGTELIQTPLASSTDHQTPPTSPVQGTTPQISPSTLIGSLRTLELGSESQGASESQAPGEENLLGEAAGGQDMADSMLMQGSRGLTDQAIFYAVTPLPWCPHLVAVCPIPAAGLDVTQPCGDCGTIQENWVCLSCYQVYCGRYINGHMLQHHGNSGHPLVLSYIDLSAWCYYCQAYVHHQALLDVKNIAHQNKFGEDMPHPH

T2: human KDAC8 (lysine deacetylase 8) (human) (UniProt Q9BY41)
T2 sequence: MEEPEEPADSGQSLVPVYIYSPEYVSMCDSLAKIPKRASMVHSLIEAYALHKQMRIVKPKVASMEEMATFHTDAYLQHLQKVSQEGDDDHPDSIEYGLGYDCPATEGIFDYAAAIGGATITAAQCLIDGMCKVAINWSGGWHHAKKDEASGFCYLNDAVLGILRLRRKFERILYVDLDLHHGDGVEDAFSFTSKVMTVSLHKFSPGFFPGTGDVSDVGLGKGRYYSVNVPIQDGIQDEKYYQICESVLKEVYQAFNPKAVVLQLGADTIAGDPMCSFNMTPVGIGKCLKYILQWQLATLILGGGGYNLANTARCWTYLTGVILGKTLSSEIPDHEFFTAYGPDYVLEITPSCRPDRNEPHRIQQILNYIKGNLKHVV


Assays:
KDAC6 = molecular target: T1, KDAC6
[1] = molecular target: T2, human KDAC8 (lysine deacetylase 8) (human)
[2] = molecular target: KDAC6 (lysine deacetylase 6) (human) (UniProt Q9UBN7)

| Molecule | SAHA inhibition of KDAC6 in the presence and absence of AMC (KDAC6) | KM of steady-state deacetylation kinetics (fluorescamine assay, 25 °C) [1] | KM of steady-state deacetylation kinetics (fluorescamine assay, 25 °C) [2] |
| --- | --- | --- | --- |
| O=C(CCCCCCC(=O)Nc1ccccc1)NO [SAHA, suberoylanilide hydroxamic acid] | comparable | – | – |
| RG{K-ac} (peptide) | – | > 5000 µM | – |
| {K-ac}W (peptide) | – | > 5000 µM | 70 µM |
| Ac-RHK(Ac)K(Ac)-NH2 [RH{K-ac}{K-ac}] | – | 3100 µM | 370 µM |
| Ac-RHK(Ac)K(Ac)W-NH2 [RH{K-ac}{K-ac}W] | – | 1200 µM | – |
| Ac-RGK(Ac)W-NH2 [RG{K-ac}W] | – | 2700 µM | – |
